Results as given in publication doi:10.1101/2021.04.25.441314.
Read-outs that look alike come from different tables or passages of the source.

Key:
Hfq Y25D (distal face) [1] = target: T1, Hfq Y25D (distal face) (Escherichia coli, UniProt P0A6X3 1-102, Y25D); assay: filter binding
Hfq wt [2] = target: T2, Hfq wt (Escherichia coli, UniProt P0A6X3 1-102); assay: filter binding
Hfq R16A (rim) [3] = target: T3, Hfq R16A (rim) (Escherichia coli, UniProt P0A6X3 1-102, R16A); assay: filter binding
Hfq wt [4] = target: T2, Hfq wt; assay: competition
Hfq R16A (rim) [5] = target: T3, Hfq R16A (rim); assay: filter binding; remark: listed apart in the source
Hfq wt [6] = target: T2, Hfq wt; assay: filter binding; remark: listed apart in the source
Hfq Y25D (distal face) [7] = target: T1, Hfq Y25D (distal face); assay: filter binding; remark: listed apart in the source
Hfq R16A (rim) [8] = target: T3, Hfq R16A (rim); assay: filter binding; remark: listed apart in the source
Hfq wt [9] = target: T2, Hfq wt; assay: competition; remark: listed apart in the source
Hfq Y25D (distal face) [10] = target: T1, Hfq Y25D (distal face); assay: filter binding; remark: listed apart in the source
Hfq wt [11] = target: T2, Hfq wt; assay: filter binding; remark: listed apart in the source
Hfq Y25D (distal face) [12] = target: T1, Hfq Y25D (distal face); assay: EMSA
Hfq wt [13] = target: T2, Hfq wt; assay: filter binding; remark: listed apart in the source
Hfq Y25D (distal face) [14] = target: T1, Hfq Y25D (distal face); assay: filter binding; remark: listed apart in the source
Hfq R16A (rim) [15] = target: T3, Hfq R16A (rim); assay: filter binding; remark: listed apart in the source
Hfq R16A (rim) [16] = target: T3, Hfq R16A (rim); assay: filter binding; remark: listed apart in the source
Hfq wt [17] = target: T2, Hfq wt; assay: filter binding; remark: listed apart in the source
Hfq Y25D (distal face) [18] = target: T1, Hfq Y25D (distal face); assay: filter binding; remark: listed apart in the source
Hfq K56A (proximal face) = Hfq K56A (proximal face) (Escherichia coli, UniProt P0A6X3 1-102, K56A); assay: filter binding
Hfq wt [19] = target: T2, Hfq wt; assay: filter binding; remark: listed apart in the source

B1: AgvB-U0 (structured_RNA)
RNA: GGCGAUAACACAACAAUAUCAGUAUCUCAUGCUAUUGCCCGAACCCAUUCGGGCA
Q: How did the Kd (Hfq Y25D (distal face) [1]) turn out when B1 was run?
A: 21 ± 8 nM

Q: And the Kd (Hfq wt [2])?
A: 1.75 ± 0.6 nM

Q: What about the Kd (Hfq R16A (rim) [3]) of the same binder?
A: 3.9 ± 0.76 nM

B2: GcvB (structured_RNA)
RNA: GACUUCCUGAGCCGGAACGAAAAGUUUUAUCGGAAUGCGUGUUCUGGUGAACUUUUGGCUUACGGUUGUGAUGUUGUGUUGUUGUGUUUGCAAUUGGUCUGCGAUUCAGACCAUGGUAGCAAAGCUACCUUUUUUCACUUCCUGUACAUUUACCCUGUCUGUCCAUAGUGAUUAAUGUAGCACCGCCUAAUUGCGGUGCUUUUUUU
Q: What does the source list for B2?
A: IC50 (Hfq wt [4]): 23 ± 5.2 nM; binding signal (Hfq R16A (rim) [5]): 30 fold weaker than wt Hfq; Kd (Hfq wt [6]): < 1 nM; Kd (Hfq Y25D (distal face) [7]): < 1 nM

B3: 3'ETSleuZ (structured_RNA)
RNA: GGCCCGGAUGGUGGAAUCGGUAGACACAAGGGAUUUAAAAUCCCUCGGCGUUCGCGCUGUGCGGGUUCAAGUCCCGCUCCGGGUACCAUGGGAAAGAUAAGAAUAAAAUCAAAGCAAUAAGCAGUGUCGUGAAACCACCUUCGGGUGGUUUUUUU
Q: B3 was tested. Which IC50 (Hfq wt [4]) did it give?
A: 39 ± 7.3 nM

Q: Does B3 bind (Hfq R16A (rim) [8])?
A: binds

Q: What about the IC50 (Hfq wt [9]) of the same binder?
A: 2.8 ± 0.35 nM

Q: And the Kd (Hfq Y25D (distal face) [10])?
A: 0.34 ± 0.18 nM

Q: And the Kd (Hfq wt [11])?
A: 0.22 ± 0.008 nM

B4: RybB (structured_RNA)
RNA: GGCCACUGCUUUUCUUUGAUGUCCCCAUUUUGUGGAGCCCAUCAACCCCGCCAUUUCGGUUCAAGGUUGAUGGGUUUUUU
Q: Does B4 bind (Hfq Y25D (distal face) [12])?
A: binds

B5: AgvB-U9 (structured_RNA)
RNA: GGCGAUAACACAACAAUAUCAGUAUCUCAUGCUAUUGCCCGAACCCAUUCGGGCAUUUUUUUUU
Q: For B5, which Kd (Hfq wt [13]) is on record?
A: 0.18 ± 0.02 nM

Q: And the Kd (Hfq Y25D (distal face) [14])?
A: 0.12 ± 0.016 nM

Q: And the Kd (Hfq R16A (rim) [15])?
A: 0.19 ± 0.02 nM

B6: AgvB (structured_RNA)
RNA: GGCGAUAACACAACAAUAUCAGUAUCUCAUGCUAUUGCCCGAACCCAUUCGGGCAUUUUU
Q: What does the source list for B6?
A: Kd (Hfq R16A (rim) [16]): 2.7 ± 0.12 nM; IC50 (Hfq wt [4]): 9.9 ± 2.7 nM; Kd (Hfq wt [17]): 0.38 ± 0.06 nM; Kd (Hfq Y25D (distal face) [18]): 0.13 ± 0.003 nM; IC50 (Hfq wt [9]): 3.2 ± 1.4 nM; Kd (Hfq K56A (proximal face)): 27.2 ± 2.4 nM

B7: 3'ETSleuZ-U4 (structured_RNA)
RNA: GGCCCGGAUGGUGGAAUCGGUAGACACAAGGGAUUUAAAAUCCCUCGGCGUUCGCGCUGUGCGGGUUCAAGUCCCGCUCCGGGUACCAUGGGAAAGAUAAGAAUAAAAUCAAAGCAAUAAGCAGUGUCGUGAAACCACCUUCGGGUGGUUUU
Q: Does B7 bind (Hfq wt [19])?
A: binds
